Data as given in patent publication CN116178530A.

Experiments:
Assay in all cases: cell-based or functional assay
[1] = target: SARS-CoV-2的Delta突变株(B.1.617.2)假病毒的刺突蛋白 (SARS-CoV-2) (UniProt P0DTC2)
[2] = target: SARS-CoV-2的Alpha突变株(B.1.1.7)假病毒的刺突蛋白 (SARS-CoV-2) (UniProt P0DTC2)
[3] = target: SARS-CoV-2的Kappa突变株(B.1.617.1)假病毒的刺突蛋白 (SARS-CoV-2) (UniProt P0DTC2)

CB6 (antibody)
假病毒中和 IC50 (荧光素酶报告基因, 293-ACE2细胞) [1]: 0.00343 µg/mL
假病毒中和 IC50 (荧光素酶报告基因, 293-ACE2细胞) [2]: 0.0557 µg/mL
假病毒中和 IC50 (荧光素酶报告基因, 293-ACE2细胞) [3]: 0.0147 µg/mL
